The data set addresses T1, Ec86 retron RT (Escherichia coli, UniProt P23070 P23070:1-320).
T1 sequence: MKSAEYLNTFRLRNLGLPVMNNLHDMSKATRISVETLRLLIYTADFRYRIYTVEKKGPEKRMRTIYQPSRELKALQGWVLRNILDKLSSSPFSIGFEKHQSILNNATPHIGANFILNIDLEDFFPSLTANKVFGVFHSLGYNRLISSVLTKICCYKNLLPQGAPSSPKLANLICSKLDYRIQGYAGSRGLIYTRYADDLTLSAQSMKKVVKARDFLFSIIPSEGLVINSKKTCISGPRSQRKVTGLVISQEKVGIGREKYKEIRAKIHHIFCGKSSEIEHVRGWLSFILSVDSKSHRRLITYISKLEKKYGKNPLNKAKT
As to the kind of experiment: msdDNA qPCR, 37 C 2 h. The following applies: tags: N-terminal Strep tag. On the technique in general: In qPCR the cycle at which signal appears reflects the starting amount.

Method: The Ec86 RT was co-expressed with the ncRNA substrate (final 100 nM) in a cell-free expression system) supplemented with dNTPs (final 0.3 mM). Expression constructs were codon-optimized for E. coli and contained an N-terminal single Strep tag. After incubation for 2 h at 37° C., the reaction was quenched by heat denaturation at 95° C. for 2 min, followed by treatment by RNase A for 30 min at 37° C. […] The resulting reverse transcription products, herein referred to as msdDNA, were diluted prior to qPCR to ensure msdDNA concentrations were within the linear range of detection. The amount of msdDNA was quantified by extrapolating values from a standard curve generated with a DNA template of known concentrations.

B1: Ec86 wild-type ncRNA (ssRNA)
RNA: GGAUGCGCACCCUUAGCGAGAGGUUUAUCAUUAAGGUCAACCUCUGGAUGUUGUUUCGGCAUCCUGCAUUGAAUCUGAGUUACUGUCUGUUUUCCUUGUUGGAACGGAGAGCAUCGCCUGAUGCUCUCCGAGCCAACCAGGAAACCCGUUUUUUCUGACGUAAGGGUGCGCAACUUUC
B1: the binding result is recorded as “binds”.

The values above are taken from patent US20260132392, “GENE EDITING SYSTEMS COMPRISING REVERSE TRANSCRIPTASES” (Metagenomi, Inc., published 2026).
